Measured values from patent US20240270841A1 (LG CHEM, published 2024).

Tests used:
[1] = biological target: T1, LILRB1 expressed on the surface of human natural killer cell KHYG-1 (human, UniProt Q8NHL6 24-650); experiment: flow cytometry (iQue) on KHYG-1 NK cells, antibody 50 ug/mL
T1 construct: whole, on cells; also called LILRB1 on KHYG-1 cells; human NK cells (surface)
Protocol: In order to test whether or not 93 antibodies selected in Example 1.4 bind LILRB1 expressed on surface of immune cells, natural killer cell (NK cell) surface binding assay was performed. A human NK cell, KHYG-1 cell (JCRB) was cultured in RPMI 1640 medium (Gibco) supplemented with 10%(w/v) of FBS (Gibco) and 100 U/mL of interleukin-2 (Novartis). KHYG-1 cells were added to a U-bottom 96-well tissue culture plate (BD Falcon) at the amount of 5×10⁴ cells/well. Each of the selected antibodies was added to the well to the final concentration of 50 μg/mL per well and incubated at 4° C. for 1 hour.
In order to see the level of LILRB1-specific binding of the selected antibodies, a human IgG4 isotype control antibody (Biolegend) was treated in the same manner. After washing with FACS buffer, the cells were treated with an anti-human Fc-biotin antibody (life technologies) and incubated at 4° C. for 1 hour. After washing with FACS buffer, the cells were treated with streptavidin PE (BD Pharmigen) and incubated at 4° C. for 30 minutes. After washing with FACS buffer, the cells were resuspended and subjected to analysis using iQue screener (Sartorius).

[2] = biological target: T2, human LILRB1 protein (LILRB1-His, RnD systems Cat. No. 8989-T2) (human, UniProt Q8NHL6 24-458); experiment: SPR (Biacore T200), antibody captured by anti-human IgG (Fc), LILRB1-His injected
T2 construct: Bought protein; also called human LILRB1-His; not shown: His tag
Protocol: The binding affinities of the 93 antibodies, which were selected in Example 1.3, to the antigen, LILRB1, were measured using Biacore T200 (GE healthcare). An anti-human IgG (Fc) antibody (GE healthcare, Cat. No. BR-1008-39, final concentration of 25 μg/mL) was flowed at the flow rate of 5 μL/min for 360 seconds to be immobilized at 5000-7000 RU on Series S Sensor Chip CM5 (GE healthcare, Cat. No. BR-1005-30) using Amine Coupling Kit (GE healthcare, Cat. No. BR-1000-508).

T1 sequence (Q8NHL6 24-650): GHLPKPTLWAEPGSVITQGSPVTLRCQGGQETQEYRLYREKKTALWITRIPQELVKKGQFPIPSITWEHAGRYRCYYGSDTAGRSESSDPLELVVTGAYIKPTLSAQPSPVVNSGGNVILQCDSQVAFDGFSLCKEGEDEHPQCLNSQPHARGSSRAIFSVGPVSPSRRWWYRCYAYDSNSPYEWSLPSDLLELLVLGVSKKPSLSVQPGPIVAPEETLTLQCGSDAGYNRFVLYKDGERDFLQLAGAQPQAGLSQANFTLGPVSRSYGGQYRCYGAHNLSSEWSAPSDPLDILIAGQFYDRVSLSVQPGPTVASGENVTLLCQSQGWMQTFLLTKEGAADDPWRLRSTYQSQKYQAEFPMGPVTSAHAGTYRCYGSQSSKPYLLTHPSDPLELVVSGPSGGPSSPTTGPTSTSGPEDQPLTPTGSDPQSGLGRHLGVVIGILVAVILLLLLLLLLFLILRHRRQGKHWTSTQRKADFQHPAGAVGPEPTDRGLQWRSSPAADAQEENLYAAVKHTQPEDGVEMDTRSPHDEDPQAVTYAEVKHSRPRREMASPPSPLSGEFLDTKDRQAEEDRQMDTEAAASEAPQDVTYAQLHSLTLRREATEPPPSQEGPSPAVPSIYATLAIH
T2 sequence (Q8NHL6 24-458 limits assumed): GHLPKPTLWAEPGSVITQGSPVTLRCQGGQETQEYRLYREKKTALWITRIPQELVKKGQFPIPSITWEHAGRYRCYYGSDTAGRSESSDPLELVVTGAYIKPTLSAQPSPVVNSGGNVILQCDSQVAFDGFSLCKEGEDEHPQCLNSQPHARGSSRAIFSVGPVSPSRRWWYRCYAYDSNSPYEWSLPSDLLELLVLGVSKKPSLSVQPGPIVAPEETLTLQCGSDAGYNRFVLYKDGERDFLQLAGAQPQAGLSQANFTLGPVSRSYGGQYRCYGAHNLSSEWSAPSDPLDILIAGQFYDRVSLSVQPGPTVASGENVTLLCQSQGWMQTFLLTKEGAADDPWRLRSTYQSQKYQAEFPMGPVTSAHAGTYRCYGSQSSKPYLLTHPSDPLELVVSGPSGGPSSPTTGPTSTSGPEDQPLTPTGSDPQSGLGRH

B1: anti-LILRB1 antibody E3 (antibody, human IgG4 S228P)
heavy: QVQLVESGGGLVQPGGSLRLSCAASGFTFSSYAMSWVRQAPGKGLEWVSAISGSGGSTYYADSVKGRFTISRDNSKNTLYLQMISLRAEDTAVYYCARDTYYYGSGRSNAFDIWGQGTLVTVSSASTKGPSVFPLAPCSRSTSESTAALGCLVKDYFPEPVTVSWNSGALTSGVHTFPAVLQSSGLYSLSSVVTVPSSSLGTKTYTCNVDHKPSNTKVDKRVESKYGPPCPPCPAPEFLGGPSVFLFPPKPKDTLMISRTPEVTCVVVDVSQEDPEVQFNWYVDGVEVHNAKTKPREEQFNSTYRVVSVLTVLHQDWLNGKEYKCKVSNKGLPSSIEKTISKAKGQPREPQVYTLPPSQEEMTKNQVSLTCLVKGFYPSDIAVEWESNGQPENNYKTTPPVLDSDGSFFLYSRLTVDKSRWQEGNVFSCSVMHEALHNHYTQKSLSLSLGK
light: SYELTQDPAVSVALGQTVRITCQGDSLRNFYASWYQQKSGQAPVLVMYGKNNRPSGIPDRFSGSTSGNTASLTITGAQAEDEADYYCNSRDSSGSHLTGVFGGGTKVTVLGQPAAAPSVTLFPPSSEELQANKATLVCLISDFYPGAVTVAWKADSSPVKAGVETTTPSKQSNNKYAASSYLSLTPEQWKSHRSYSCQVTHEGSTVEKTVAPTECS
notes: human IgG4, lambda light chain; also called Antibody clone E3
- % of population 2 [1]: 40.2%
- Mean Fluorescence Intensity [1]: 269000
- Kd [2]: 101 nM
- koff [2]: 0.0035 s⁻¹
- kon [2]: 34600 M⁻¹ s⁻¹

B2: anti-LILRB1 antibody F11 (antibody, human IgG4 S228P, V domains shown)
VH: EVQLVESGGGLVQPGGSLKLSCAASGFTFSSYAMSWVRRAPGKGLEWVSTISGSGDSTYYADSVKGRFTISRDNSKNTLYLQMNNLRAEDTAVYYCAREWELGDAFDIWGRGTLVTVSS
VL: QSVLTQPPSTSGTPGQTFSIFCSGSSSNIGTNTVNWYQQLPGTAPKLLIYSNDQRPSGVPDRFSGSKSGTSASLAISGLQSEDEADYYCETWDDSLKGPVFGGGTKVTVLG
notes: human IgG4, lambda light chain; also called Antibody clone F11
- Kd [2]: 2.26 nM
- koff [2]: 0.000615 s⁻¹
- kon [2]: 272000 M⁻¹ s⁻¹

B3: anti-LILRB1 antibody E6 (antibody, human IgG4 S228P, V domains shown)
VH: QVQLVQSGAEVKKPGASVKVSCKASGYTFTTYDITWVRQAPGQGLEWMGWMNPNSGNSRSAQKFQGRVSMTSDSSISTAYMELSSLRSEDTAVYYCATGDYSGVVLTATALDYWGQGTLVTVSS
VL: NFMLTQPHSVSESPGKTVTLSCTGSSGNIASNYVQWYQHRPGSAPTTVIYRDDQRPSGVPDRFSGSIDSSSNSASLTISGLRPEDEADYYCQSYDSSSWVFGGGTKLTVLG
notes: human IgG4, lambda light chain; also called Antibody clone E6
- Kd [2]: 60.7 nM
- koff [2]: 0.00163 s⁻¹
- kon [2]: 26800 M⁻¹ s⁻¹

B4: anti-LILRB1 antibody D1 (antibody, human IgG4 S228P, V domains shown)
VH: EVQLVQSGAEVKKPGASVKVSCKASGYTFTSYGISWVRQAPGQGLEWMGWINPNSGGTNYAQKFQGRVTMTRDTSISTAYMELSRLRSDDTAVYYCASRGVDEGDYWGQGTMVTVSS
VL: ETTLTQSPAFMSATPGDKVNISCKASQDIDDDMNWYQQKPGEAAISIIQEASTLVPGIPPRFSGSGYGTDFTLTINNIESEDAAYYFCLQHDKFPYTFGQGTKLEIKR
notes: human IgG4, kappa light chain; also called Antibody clone D1
- Kd [2]: 49.3 nM
- koff [2]: 0.00574 s⁻¹
- kon [2]: 116000 M⁻¹ s⁻¹

B5: anti-LILRB1 antibody G1 (antibody, human IgG4 S228P, V domains shown)
VH: EVQLVQSGAEVKKPGSSVKVSCKASGGTFSSYGISWVRQAPGQGLEWMGWISAYNGNTNYAQELQGRVTMTTDTSTSTAYMELRSLRSDDTAVYYCARVGVAGKLDYWGQGTLVTVSS
VL: SYELTQPPSLSVSPGQTASITCSGYKLGDRYVSWYQQKTGQSPVVVIYKDSQRPSGVPERFSGSNSGNTATLTISGTQAMDEADYYCQAWDSGTGVFGGGTKLTVLG
notes: human IgG4, lambda light chain; also called Antibody clone G1
- % of population 2 [1]: 56.2%
- Mean Fluorescence Intensity [1]: 321000
- Kd [2]: 3.28 nM
- koff [2]: 0.00142 s⁻¹
- kon [2]: 433000 M⁻¹ s⁻¹

B6: anti-LILRB1 antibody E4 (antibody, human IgG4 S228P, V domains shown)
VH: QVQLVQSGAEVKKPGSSVKVSCKASGGTFSSYTISWVRQAPGQGLEWMGRIIPILGIANYAQKFQGRVTMTRDMSTDTAYMELSSLTYDDTAVYFCVRGPSLNYAGYFDNWGQGTLVTVSS
VL: NFMLTQPHSVSESPGKTVTISCTRSSGSIASNYVQWYQQRPGSSPTTVIYEDNQRPSGVPDRFSGSIDSSSNSASLTISGLKTEDEADYYCQSYDTGNRNYVFGTGTQLTVLG
notes: human IgG4, lambda light chain; also called Antibody clone E4
- % of population 2 [1]: 43.2%
- Mean Fluorescence Intensity [1]: 272000
- Kd [2]: 72.5 nM
- koff [2]: 0.000773 s⁻¹
- kon [2]: 10600 M⁻¹ s⁻¹

B7: anti-LILRB1 antibody E12 (antibody, human IgG4 S228P, V domains shown)
VH: QVQLVESGGGLVQPGGSLRLSCAASGFTFSSYAMHWVRQAPGKGLEWVAVISYDGSNKYYADSVKGRFTISRDNSKNTLYLQMNSLRAEDTAVYYCARERGSGMDVWGQGTLVTVSS
VL: SYELTQDPAVSVALGQTVRITCQGDSLRSYYASWYQQKSGQAPVLVIYGKEKRPSGIPDRFSGSSSGNTASLTITGARAEDEADYYCNSRGSTTDYMVFGGGTQLTVLG
notes: human IgG4, lambda light chain; also called Antibody clone E12
- Kd [2]: 44 nM
- koff [2]: 0.0103 s⁻¹
- kon [2]: 233000 M⁻¹ s⁻¹

B8: anti-LILRB1 antibody E9 (antibody, human IgG4 S228P, V domains shown)
VH: QVQLVESGGGLVQPGRSLRLSCAASGFTFSSYGMHWVRQAPGKGLEWVANIKQDGSEKYYVDSVKGRFTISRDNAKNTLYLQMNSLRAEDTAVYYCAREDRIAAAGMRELDYWGQGTLVTVSS
VL: QSELTQLPSASETPGQRVTISCSGSSSNIGNNYVYWYQQLPGTAPKLLIYRNNQRPSGVPDRFSGSKSGTSASLAISGLRSEDEADYYCAAWDDSLSGWVFGGGTKLTVLG
notes: human IgG4, lambda light chain; also called Antibody clone E9
- Kd [2]: 99.9 nM
- koff [2]: 0.00105 s⁻¹
- kon [2]: 10500 M⁻¹ s⁻¹

B9: anti-LILRB1 antibody F12 (antibody, human IgG4 S228P, V domains shown)
VH: QVQLVQSGAEVKKPGESLKISCKGSGYSFTSYWIGWVRQMPGKGLEWMGIIYPGDSDTRYSPSFQGQVTISADKSISTAYLQWSSLKASDTAMYYCASQYYDGGYYMDVWGQGTLVTVSS
VL: QSVLTQPASVSGSPGQSITISCAGTSSDIGDYDYVSWYQQHPGKTPKLMIYDVSRRPSGVPDRFSGSKSGNTASLTISGLQTEDEADYYCASYTSSSVVVFGGGTKLTVLG
notes: human IgG4, lambda light chain; also called Antibody clone F12
- % of population 2 [1]: 38%
- Mean Fluorescence Intensity [1]: 262000
- Kd [2]: 3.46 nM
- koff [2]: 0.000973 s⁻¹
- kon [2]: 281000 M⁻¹ s⁻¹

B10: anti-LILRB1 antibody G9 (antibody, human IgG4 S228P, V domains shown)
VH: QVQLVQPGAEVKKPGESLKISCKGSGYSFTSYWIGWVRQMPGKGLEWMGIIYPGDSDTRYSPSFQGQVTISADKSISTAYLQWSSLKASDTAMYYCASQYYDGGYYMDVWGQGTLVTVSS
VL: QSALTQPASVSGSPGQSITISCTGSSSDVGGYNYVSWYQQHPGKAPKLMIYDVSNRPSGVSDRFSGSKSGNMASLTISGLQAEDEADYYCSSYTGSSTLDVLFGGGTKLTVLG
notes: human IgG4, lambda light chain; also called Antibody clone G9
- % of population 2 [1]: 41.3%
- Mean Fluorescence Intensity [1]: 263000
- Kd [2]: 3.05 nM
- koff [2]: 0.000436 s⁻¹
- kon [2]: 143000 M⁻¹ s⁻¹

B11: anti-LILRB1 antibody A11 (antibody, human IgG4 S228P, V domains shown)
VH: EVQLLESGGGLEQPGGFLRLSCAASGFSFTSYAMTWVRQAPGKGLEWVSGISSDGTTTTYADSVRGRFTISRDNAKNTVYLQMNSLRDEDTAVYYCARDQLLGWDALNVWGQGTMVTVSS
VL: not shown
notes: human IgG4, kappa light chain; also called Antibody clone A11
- Kd [2]: 5450 nM
- koff [2]: 0.000981 s⁻¹
- kon [2]: 180 M⁻¹ s⁻¹

B12: anti-LILRB1 antibody D3 (antibody, human IgG4 S228P, V domains shown)
VH: EVQLLESGGGVVQPGRSLRLSCAASGSTFSSYAMSWVRQAPGKGLEWVSAISGSGGSTYYADSVKGRFTISRDNSKNTLYLQMNSLRAEDTAVYYCAKDRGSYGYYYGMDVWGQGTMVTVSS
VL: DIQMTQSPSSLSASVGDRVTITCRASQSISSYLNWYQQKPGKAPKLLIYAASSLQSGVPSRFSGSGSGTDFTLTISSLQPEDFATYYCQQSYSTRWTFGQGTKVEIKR
notes: human IgG4; also called Antibody clone D3
- Kd [2]: 180 nM
- koff [2]: 0.000558 s⁻¹
- kon [2]: 3110 M⁻¹ s⁻¹

B13: anti-LILRB1 antibody A10 (antibody, human IgG4 S228P, V domains shown)
VH: QMQLVQSGAEVKKPGSSVKVSCKASGGTFSSYAISWVRQAPGQGLEWMGGIIPIFGTANYAQKFQGRVTITADKSISTAYMELSSLRSEDTAVYYCARGGLGELDNWFDPWGQGTLVTVSS
VL: DIVMTQSPATLSVSPGERATLSCRASQSVSSNLAWYQQKPGQAPRLLIYGASTRATGIPARFSGSGSGTEFTLTISSLQSEDFAVYYCQQYGSSPRMYTFGQGTKVDIKR
notes: human IgG4, kappa light chain; also called Antibody clone A10
- % of population 2 [1]: 28.7%
- Mean Fluorescence Intensity [1]: 223000
- Kd [2]: 152 nM
- koff [2]: 0.00765 s⁻¹
- kon [2]: 50400 M⁻¹ s⁻¹

B14: anti-LILRB1 antibody G6 (antibody, human IgG4 S228P, V domains shown)
VH: EVQLVESGAEVKKPGASVKVSCKASGYTFTSYYMHWVRQAPGQGLEWMGGIIPIFGTANYAQKFQGRVTITADESTSTAYMELSSLRSEDTAVYYCARGWGYSSSFDYWGQGTTVTVSS
VL: SYELTQDPAVSVALGQTVTITCQGDSLRRYYATWYQQKPGQAPVLVIYGQNYRPSGIPDRFSGSNSGTTASLTITGAQAEDEADYYCNSRDSSGNHVVFGGGTKLTVLG
notes: human IgG4, lambda light chain; also called Antibody clone G6
- Kd [2]: 59.1 nM
- koff [2]: 0.0152 s⁻¹
- kon [2]: 258000 M⁻¹ s⁻¹

B15: anti-LILRB1 antibody B9 (antibody, V domains shown)
VH: QVQLVESGAEVKKPGSSVKVSCKASGGTFSSYAISWVRQAPGQGLEWMGGIIPIFGTANYAQKFQGRVTITADESTSTAYMELSSLRSEDTAVYYCARGEIAVAQNWDYYGMDVWGQGTLVTVSS
VL: DIQMTQSPSSLSASVGDRVTITCRASQSISRYLNWYQQKPGKAPKLLIYGASSLQSGVPSRFSGSGSGTDFTLTISSLQPEDFATYHCQQAYGFPLTLGGGTKVEIKR
notes: human IgG4, kappa light chain; also called Antibody clone B9
- Kd [2]: 66.1 nM
- koff [2]: 0.000616 s⁻¹
- kon [2]: 9320 M⁻¹ s⁻¹

B16: anti-LILRB1 antibody B3 (antibody, human IgG4 S228P, V domains shown)
VH: EVQLLESGGGLVQPGRSLRLSCAASGFTFDDYAMHWVRQAPGKGLEWVSGISWNSGSIGYADSVKGRFTISRDNSKNTLYLQMNSLRAEDTAVYYCARVGDSSGWSDAFDIWGQGTMVTVSS
VL: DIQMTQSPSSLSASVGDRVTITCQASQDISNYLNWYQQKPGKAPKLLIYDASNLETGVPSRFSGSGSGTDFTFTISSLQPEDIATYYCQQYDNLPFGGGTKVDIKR
notes: human IgG4, kappa light chain; also called Antibody clone B3
- Kd [2]: 99.8 nM
- koff [2]: 0.00149 s⁻¹
- kon [2]: 14900 M⁻¹ s⁻¹

B17: anti-LILRB1 antibody B12 (antibody, V domains shown)
VH: QVQLVQSGAEVKKPGASVKVSCKASGYTFTGYYMHWVRQAPGQGLEWMGWINPNSGGTNYAQKFQGRVTITADESTSTAYMELSSLRSEDTAVYYCTRAGASIVGATALDYWGQGTLVTVSS
VL: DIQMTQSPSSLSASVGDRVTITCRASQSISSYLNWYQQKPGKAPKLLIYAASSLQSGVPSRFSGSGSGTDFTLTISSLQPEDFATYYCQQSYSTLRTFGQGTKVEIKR
notes: human IgG4, kappa light chain; also called Antibody clone B12
- Kd [2]: 7.84 nM
- koff [2]: 0.00144 s⁻¹
- kon [2]: 184000 M⁻¹ s⁻¹
